Measurements from the supplement of paper PMC9112550, “Optimization of the antimicrobial peptide Bac7 by deep mutational scanning” (BMC Biology, 2022).

Tested on: Escherichia coli TOP10
Test: shrunken log2 fold change of peptide-encoding DNA abundance (4.5 h post-induction vs induction); higher = less antimicrobial activity (less host growth inhibition)
Settings: time post-induction: 4.5 h; library: site-saturation at positions 5, 18, 19, 20
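Further: peptides expressed intracellularly from a pBAD plasmid library in pooled LB shake-flask culture, induced with 0.3% L-arabinose, DNA abundance read by NGS, three biological replicates, DESeq2 with apeglm shrinkage.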

| Sequence | shrunken log2 fold change |
| --- | --- |
| RRIRSRPPRLPRPRPRPETPPRP | 1.01 |
| RRIRGRPPRLPRPRPRPAETPRP | -0.0775 |
| RRIRQRPPRLPRPRPRPVNRPRP | 0.00086 |
| RRIRLRPPRLPRPRPRPQKQPRP | 0.17 |
| RRIRPRPPRLPRPRPRPEEFPRP | -0.0108 |
| RRIRNRPPRLPRPRPRPAHAPRP | 0.116 |
| RRIRKRPPRLPRPRPRPSMMPRP | 0.677 |
| RRIRERPPRLPRPRPRPRTHPRP | -0.574 |
| RRIRDRPPRLPRPRPRPDDQPRP | 0.259 |
| RRIRKRPPRLPRPRPRPMNWPRP | 0.134 |
| RRIRSRPPRLPRPRPRPFSCPRP | -0.0153 |
| RRIRRRPPRLPRPRPRPCMHPRP | 0.105 |
| RRIRLRPPRLPRPRPRPYPCPRP | 0.0537 |
| RRIRKRPPRLPRPRPRPWVRPRP | -0.0489 |
| RRIRFRPPRLPRPRPRPICCPRP | -0.134 |
| RRIRARPPRLPRPRPRPTFYPRP | -0.00745 |
| RRIRGRPPRLPRPRPRPNCFPRP | 0.268 |
| RRIRVRPPRLPRPRPRPDLAPRP | 3.31 |
| RRIRDRPPRLPRPRPRPSAGPRP | 0.67 |
| RRIRWRPPRLPRPRPRPIVAPRP | 0.541 |
| RRIRWRPPRLPRPRPRPHLVPRP | 0.392 |
| RRIRQRPPRLPRPRPRPPNNPRP | -0.259 |
| RRIRDRPPRLPRPRPRPAVLPRP | -0.014 |
| RRIRGRPPRLPRPRPRPAQPPRP | 0.377 |
| RRIRGRPPRLPRPRPRPFSWPRP | 0.353 |

| Sequence | shrunken log2 fold change |
| --- | --- |
| RRIRSRPPRLPRPRPRPYRKPRP | -0.901 |
| RRIRVRPPRLPRPRPRPPFVPRP | 0.0393 |
| RRIRARPPRLPRPRPRPNYGPRP | -0.24 |
| RRIRFRPPRLPRPRPRPNCHPRP | -0.313 |
| RRIRSRPPRLPRPRPRPNNEPRP | -0.631 |
| RRIRYRPPRLPRPRPRPIISPRP | -0.18 |
| RRIRHRPPRLPRPRPRPTESPRP | 0.0139 |
| RRIRSRPPRLPRPRPRPWLEPRP | -0.0707 |
| RRIRCRPPRLPRPRPRPETSPRP | 0.0533 |
| RRIRSRPPRLPRPRPRPLPDPRP | 0.266 |
| RRIRYRPPRLPRPRPRPAVTPRP | -3.6 |
| RRIRSRPPRLPRPRPRPLKDPRP | -0.484 |
| RRIRERPPRLPRPRPRPHPHPRP | -0.167 |
| RRIRARPPRLPRPRPRPPWHPRP | 0.342 |
| RRIRHRPPRLPRPRPRPNAMPRP | -0.0505 |
| RRIRIRPPRLPRPRPRPEHYPRP | -0.295 |
| RRIRWRPPRLPRPRPRPKREPRP | 0.0441 |
| RRIRDRPPRLPRPRPRPCCNPRP | 0.255 |
| RRIRSRPPRLPRPRPRPSVKPRP | -0.068 |
| RRIRLRPPRLPRPRPRPKVHPRP | -0.106 |
| RRIRKRPPRLPRPRPRPWEFPRP | 0.504 |
| RRIRYRPPRLPRPRPRPVGCPRP | -0.284 |
| RRIRGRPPRLPRPRPRPYLHPRP | -0.385 |
| RRIRARPPRLPRPRPRPNECPRP | -0.409 |
| RRIRTRPPRLPRPRPRPFRWPRP | 0.24 |

| Sequence | shrunken log2 fold change |
| --- | --- |
| RRIRERPPRLPRPRPRPPAKPRP | 0.176 |
| RRIRTRPPRLPRPRPRPQEAPRP | 0.0871 |
| RRIRHRPPRLPRPRPRPSSAPRP | -0.0336 |
| RRIRCRPPRLPRPRPRPAENPRP | 0.000461 |
| RRIRWRPPRLPRPRPRPYTGPRP | -0.135 |
| RRIRGRPPRLPRPRPRPFGKPRP | -0.144 |
| RRIRERPPRLPRPRPRPMCLPRP | -0.38 |
| RRIRIRPPRLPRPRPRPIVRPRP | -0.339 |
| RRIRGRPPRLPRPRPRPDLTPRP | 0.219 |
| RRIRGRPPRLPRPRPRPTEYPRP | -0.0607 |
| RRIRVRPPRLPRPRPRPMQFPRP | 0.0422 |
| RRIRHRPPRLPRPRPRPLWVPRP | -0.142 |
| RRIRRRPPRLPRPRPRPDTKPRP | -0.139 |
| RRIRGRPPRLPRPRPRPRYGPRP | 0.134 |
| RRIRVRPPRLPRPRPRPWALPRP | -0.112 |
| RRIRQRPPRLPRPRPRPWKLPRP | -0.09 |
| RRIRERPPRLPRPRPRPTPIPRP | 0.244 |
| RRIRVRPPRLPRPRPRPWPLPRP | -0.183 |
| RRIRARPPRLPRPRPRPTNFPRP | -0.0105 |
| RRIRFRPPRLPRPRPRPDINPRP | -0.302 |
| RRIRARPPRLPRPRPRPGADPRP | 0.832 |
| RRIRRRPPRLPRPRPRPVVWPRP | 0.643 |
| RRIRYRPPRLPRPRPRPYHPPRP | -0.152 |
| RRIRKRPPRLPRPRPRPKYRPRP | -0.00889 |
| RRIRYRPPRLPRPRPRPIQVPRP | -0.0153 |

| Sequence | shrunken log2 fold change |
| --- | --- |
| RRIRYRPPRLPRPRPRPNSIPRP | -0.737 |
| RRIRRRPPRLPRPRPRPGAHPRP | 0.45 |
| RRIRHRPPRLPRPRPRPWCHPRP | -0.00107 |
| RRIRFRPPRLPRPRPRPKAEPRP | 0.00911 |
| RRIRMRPPRLPRPRPRPKISPRP | 0.0938 |
| RRIRDRPPRLPRPRPRPAMGPRP | 0.399 |
| RRIRYRPPRLPRPRPRPTHFPRP | 0.262 |
| RRIRWRPPRLPRPRPRPFPWPRP | -0.0524 |
| RRIRERPPRLPRPRPRPVCLPRP | -0.0994 |
| RRIRHRPPRLPRPRPRPGNRPRP | 0.013 |
| RRIRDRPPRLPRPRPRPFAYPRP | -0.101 |
| RRIRERPPRLPRPRPRPISIPRP | -0.258 |
| RRIRERPPRLPRPRPRPNESPRP | 0.0842 |
| RRIRMRPPRLPRPRPRPVADPRP | 3 |
| RRIRPRPPRLPRPRPRPFGVPRP | -0.112 |
| RRIRNRPPRLPRPRPRPVSNPRP | -0.00917 |
| RRIRDRPPRLPRPRPRPFRMPRP | -0.125 |
| RRIRDRPPRLPRPRPRPENKPRP | 0.0324 |
| RRIRTRPPRLPRPRPRPGFFPRP | 0.147 |
| RRIRIRPPRLPRPRPRPKWWPRP | 0.188 |
| RRIRRRPPRLPRPRPRPNKDPRP | 0.202 |
| RRIRLRPPRLPRPRPRPPVIPRP | -0.0477 |
| RRIRQRPPRLPRPRPRPTYNPRP | -0.591 |
| RRIRMRPPRLPRPRPRPNFRPRP | 0.0542 |
| RRIRHRPPRLPRPRPRPSCNPRP | -0.599 |

| Sequence | shrunken log2 fold change |
| --- | --- |
| RRIRIRPPRLPRPRPRPHYKPRP | -0.756 |
| RRIRRRPPRLPRPRPRPYRCPRP | -1.3 |
| RRIRSRPPRLPRPRPRPKHPPRP | -0.194 |
| RRIRARPPRLPRPRPRPTGYPRP | 0.191 |
| RRIRIRPPRLPRPRPRPEAKPRP | 0.0733 |
| RRIRARPPRLPRPRPRPPWPPRP | 0.738 |
| RRIRDRPPRLPRPRPRPKVWPRP | 0.437 |
| RRIRWRPPRLPRPRPRPQCSPRP | 0.221 |
| RRIRYRPPRLPRPRPRPEWHPRP | -0.186 |
| RRIRGRPPRLPRPRPRPWEEPRP | -0.0105 |
| RRIRGRPPRLPRPRPRPLVGPRP | 0.439 |
| RRIRYRPPRLPRPRPRPVEDPRP | -0.0671 |
| RRIRLRPPRLPRPRPRPDADPRP | 1.25 |
| RRIRPRPPRLPRPRPRPLTHPRP | -0.108 |
| RRIRPRPPRLPRPRPRPLDQPRP | 0.0885 |
| RRIRMRPPRLPRPRPRPICTPRP | 0.153 |
| RRIRTRPPRLPRPRPRPKHAPRP | 0.0369 |
| RRIRMRPPRLPRPRPRPQRLPRP | 0.294 |
| RRIRDRPPRLPRPRPRPVNEPRP | 0.0314 |
| RRIRWRPPRLPRPRPRPPVNPRP | 0.13 |
| RRIRTRPPRLPRPRPRPCFPPRP | -0.141 |
| RRIRQRPPRLPRPRPRPECAPRP | 0.407 |
| RRIRKRPPRLPRPRPRPVNEPRP | -0.00608 |
| RRIRTRPPRLPRPRPRPWSFPRP | -0.0893 |
| RRIRERPPRLPRPRPRPSGAPRP | -0.12 |

| Sequence | shrunken log2 fold change |
| --- | --- |
| RRIRYRPPRLPRPRPRPNWTPRP | -0.00491 |
| RRIRFRPPRLPRPRPRPFNKPRP | -0.729 |
| RRIRIRPPRLPRPRPRPNGMPRP | -0.0985 |
| RRIRVRPPRLPRPRPRPGDFPRP | 0.0156 |
| RRIRVRPPRLPRPRPRPNETPRP | -0.033 |
| RRIRYRPPRLPRPRPRPHLAPRP | 0.13 |
| RRIRERPPRLPRPRPRPVNRPRP | -0.294 |
| RRIRSRPPRLPRPRPRPVASPRP | -0.151 |
| RRIRVRPPRLPRPRPRPEQDPRP | 0.173 |
| RRIRYRPPRLPRPRPRPWMAPRP | -0.288 |
| RRIRHRPPRLPRPRPRPSDEPRP | -0.000726 |
| RRIRIRPPRLPRPRPRPPPSPRP | 0.399 |
| RRIRKRPPRLPRPRPRPRYRPRP | -0.0384 |
| RRIRNRPPRLPRPRPRPVVPPRP | 0.0751 |
| RRIRIRPPRLPRPRPRPDWRPRP | 0.194 |
| RRIRPRPPRLPRPRPRPQGKPRP | -0.198 |
| RRIRWRPPRLPRPRPRPHGYPRP | -0.018 |
| RRIRGRPPRLPRPRPRPSVIPRP | 0.159 |
| RRIRHRPPRLPRPRPRPAEYPRP | 0.034 |
| RRIRVRPPRLPRPRPRPNELPRP | -0.00739 |
| RRIRARPPRLPRPRPRPMWFPRP | 0.0716 |
| RRIRQRPPRLPRPRPRPMKPPRP | -0.0268 |
| RRIRPRPPRLPRPRPRPSQRPRP | 0.229 |
| RRIRYRPPRLPRPRPRPPPLPRP | 0.616 |
| RRIRARPPRLPRPRPRPTRFPRP | 0.737 |
